Data from paper PMC3064264 (The Journal of neuroscience : the official journal of the …, 2010).

Target: the molecule itself
Test: non-reducing SDS-PAGE and Western blot

B1: kinesin-12 (rat) (natural protein, UniProt Q7TSP2 1-1385, looked up)
chain: MAPGCKSELRNVTNSHSNQPSNEDDAIKVFVRIRPAEEGARSADGEQSLCLSVLSQTALRLHSNPDPKTFVFDYVAGMDTTQESVFSTVAKSIVESCMSGYNGTIFAYGQTGSGKTFTMMGPSDSDNFSHNLRGVIPRSFEYLFSLIDREKEKAGAGKSFLCKCSFIEVYNEQIYDLLDSASVGLYLREHIKKGVFVVGAVEQVVASAAEAYQVLSRGWRNRRVASTSMNRESSRSHAVFTITIESMEKSSEAVNIRTSLLNLVDLAGSERQKDTHAEGMRLKEAGNINRSLSCLGQVITALVDVGNGKQRHVCYRDSKLTFLLRDSLGGNAKTAIIANVHPGSRCFGETLSTLNFAQRAKLIKNKAVVNEDTQGNVSQLQAEVKRLREQLSQFTSGQLTPGSSLARDKEKANYMEYFLEAMLFFKKSEQEKKSLVEKITQLEDLTLKKEKFIQSNKMIVKFREDQIMRLERLQKEARGSFLPEEQDRLLSELRDEIRTLREQVEHHPRLAKYAMENHSLREENRKLKLLAPVKRAHELDAQAIARLEQAFSEVSSTETNDKGLQGLPPKAIKEPSFFTSTEKLKVQLLQIQTELNNSKQEYEEFKELTRKKQLELESELQSLQKANLNLENLLEATKVCKRQEVSQLNKIHAETLKIITTPTKAYQLCSRLVPKSSPEVGSFGFLRSQSAPDNDILNEPVPPEMSEQALEAISEELRTVQEQLSVLQVKLDEEEHKNLKLQQNVDRLEHHSTQMQELFSSERSDWSKQQQDYLTQLSDLEKQLQDAQTKNDFLKCEVHDLRIVLNSADKELSLVKLEYSTFKESQEKELSQLSERHVQVQLQLDNARLENEKLLESQACLQDSYDNLQEVMKFEVDQLSKNLQNCKQENETLKSDLHNLVELFEAEKERNNKLSLQFEEDKENSSKEILKALETVRQEKQEEMARCEKQMAKVQELEESLLAAENVVSCLEKSRESDKELVTNLMNQIQELRTSAGEKSEAIDTLKQELQDISCKYTAAVADKEESKELIRRQEVDILELKETLRLRILSEDIERDMLCEDLAHATEQLNMLTEASKKHSGLLQSAQEELTKKEALIQELQHKLNQEKEEVEQKKSEYNLKMKQLEHVMGSAPEYPQSPKTPPHFQTHLAKLLETQEQEIEDGRASKMSLQHLVTKLNEDREVKNAEILRMKDQLCEMENLRLESQQLRERTWLLQTQLDDMKRQGESSSQSRPDSQQLKNEYEEEIIRERLAKNKLIEEMLKMKTDLEEVQSALDSKEKFCHRMSEEVERTRTLESRAFQEKEQLRSKLEEMYEERERTCQEMEMLRKQLEFLAEENGKLIGHQNLHQKIQYVVRLKKENIRLAEETEKLRAENVFLKERKKE
B1 was tested, and the “stoichiometry N” value was 2.
